B1: F1*; the commonest letter at each place (parent)
chain: GAGACCGCAACTGAAAAGTTGTTATCACTTGTCGTAAGACACTTTGGATGGGTTGAAGTTCTGCACGTAGAAGCAAAAGGC

Variants of: B1
Experiment: fraction ligated after 30 min (ligated reads / total reads); higher = more ligase activity
Conditions: with F1*sub RNA substrate (template-directed ligation), 42 °C
Experimental: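 Chip-synthesised pool of F1* ligase ribozyme variants (all single and double substitutions, single, double and triple deletions in the catalytic core and GAA bulge, plus designed variants) was transcribed with T7 and reacted as a pool with excess substrate F1*sub for 30 min at 42 C in 50 mM EPPS pH 8.5, 25 mM MgCl2. Ligated and unligated bands were separated by PAGE, barcoded by RT and deep sequenced; fraction ligated = ligated reads / total reads per variant, relative activity = FL / FL of wild type (0.826). Sequences are the DNA template of the ribozyme.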

Variant	fraction ligated
C28A G34C	0.779
C28A G34T	0.808
C28A G34A	0.812
A27G G38T	0.824
A27G G38A	0.83
A27G G38C	0.798
A27C G47C	0.158
A27C G47T	0.126
A27C G47A	0.799
A27C T30G	0.825
A27C T30C	0.774
A27C T30A	0.783
C28A G55C	0.19
C28A G55T	0.8
C28A G55A	0.793
A27T G55A	0.812
A27T G55T	0.789
A27T G55C	0.749
A27C C33T	0.795
A27C C33A	0.827
A27C C33G	0.815
C28A A37T	0.801
C28A A37C	0.779
C28A A37G	0.793

Variant	fraction ligated
C28G A37C	0.766
C28G A37T	0.808
C28G A37G	0.809
A27C G38C	0.792
A27C G38T	0.837
A27C G38A	0.807
C28G A36T	0.788
C28G A36G	0.812
C28G A36C	0.759
C28G A57C	0.77
A27T G50T	0.616
A27T G50A	0.412
A27T G50C	0.238
A27T A39G	0.84
A27T A39C	0.782
A27T A39T	0.783
A27T A56T	0.792
A27T A56G	0.791
A27T A56C	0.787
A27G G47A	0.805
A27G G47C	0.583
A27G G47T	0.329
C28A A57G	0.8
C28A A57C	0.776

Variant	fraction ligated
C28A A57T	0.789
A27C A57T	0.807
A27C A57C	0.787
A27C A57G	0.773
A27G T44A	0.812
A27G T44G	0.813
A27G T44C	0.81
C28G	0.797
C28A	0.809
A27G A48C	0.504
A27G A48G	0.788
A27G A48T	0.195
A27G C28T	0.813
A27G C28G	0.777
A27G C28A	0.805
C28A A56T	0.784
C28A A56G	0.681
C28A A56C	0.718
A27T T44C	0.775
A27T T44G	0.846
A27T T44A	0.825
A27C T35G	0.82
A27C T35C	0.813
A27C T35A	0.835

Variant	fraction ligated
A27C C42A	0.818
A27C C42G	0.831
A27C C42T	0.816
A27G T35A	0.847
A27G T35G	0.839
A27G T35C	0.812
A27C T49G	0.733
A27C T49A	0.701
A27C T49C	0.519
C28G A56G	0.722
C28G A56T	0.767
C28G A56C	0.7
C28A T45A	0.698
C28A T45G	0.0334
C28A T45C	0.499
A27G G55T	0.79
A27G G55C	0.554
A27G G55A	0.801
C28A A36G	0.795
C28A A36T	0.811
C28A A36C	0.806
A27T A36G	0.862
A27T A36T	0.798
A27T A36C	0.868

Variant	fraction ligated
A27G	0.852
A27T	0.8
A27C	0.81
A27G T43A	0.829
A27G T43G	0.796
A27G T43C	0.806
C28A T35A	0.792
C28A T35G	0.812
C28A T35C	0.807
C28A G46T	0.803
C28A G46A	0.829
C28A G46C	0.79
A27G C33A	0.8
A27G C33T	0.828
A27G C33G	0.846
A27T T29G	0.805
A27T T29A	0.803
A27T T29C	0.807
C28A C40G	0.824
C28A C40A	0.809
C28A C40T	0.773
A27G C40A	0.79
A27G C40T	0.817
A27G C40G	0.813

Variant	fraction ligated
A27T T49A	0.76
A27T T49G	0.287
A27T T49C	0.512
A27G G46T	0.796
A27G G46A	0.83
A27G G46C	0.795
A27C T43C	0.78
A27C T43A	0.844
A27C T43G	0.765
A27T G31A	0.848
A27T G31T	0.862
A27T G31C	0.864
C28A C33T	0.829
C28A C33G	0.813
C28A C33A	0.818
A27C A48C	0.748
A27C A48T	0.78
A27C A48G	0.256
A27C G55T	0.792
A27C G55A	0.805
A27C G55C	0.355
A27G A41G	0.791
A27G A41C	0.789
A27G A41T	0.837

Variant	fraction ligated
C28A G38T	0.799
C28A G38C	0.814
C28A G38A	0.789
A27C T32A	0.799
A27C T32G	0.78
A27C T32C	0.754
A27T T45C	0.762
A27T T45A	0.783
A27T T45G	0.16
C28G A48C	0.405
C28G A48T	0.47
C28G A48G	0.751
A27G A36T	0.826
A27G A36G	0.805
A27G A36C	0.822
A27G A57T	0.81
A27G A57G	0.819
A27G A57C	0.777
A27G A56G	0.755
A27G A56C	0.767
A27G A56T	0.769
A27G T49A	0.721
A27G T49G	0.774
A27G T49C	0.601

Variant	fraction ligated
C28G A41T	0.801
C28G A41C	0.751
C28G A41G	0.744
A27G G50C	0.161
A27G G50T	0.596
A27G G50A	0.244
C28A T49A	0.679
C28A T49G	0.724
C28A T49C	0.605
A27C G50A	0.18
A27C G50C	0.0749
A27C G50T	0.37
A27C C40T	0.818
A27C C40A	0.817
A27C C40G	0.783
A27C T45A	0.598
A27C T45C	0.335
A27C T45G	0.116
C28A G31A	0.84
C28A G31T	0.826
C28A G31C	0.831
A27C T29G	0.797
A27C T29A	0.818
A27C T29C	0.802

Variant	fraction ligated
A27T A37G	0.846
A27T A37C	0.818
A27T A37T	0.808
C26T T49G	0.405
A27G T30G	0.846
A27G T30A	0.839
A27G T30C	0.811
C28A T32C	0.756
C28A T32A	0.836
C28A T32G	0.812
A27T G46C	0.796
A27T G46A	0.817
A27T G46T	0.757
A27C G31A	0.824
A27C G31C	0.835
A27C G31T	0.789
C28G A39C	0.759
C28G A39G	0.772
C28G A39T	0.755
A27T T35C	0.811
A27T T35A	0.804
A27T T35G	0.804
A27T G47A	0.801
A27T G47T	0.0847

Variant	fraction ligated
A27T G47C	0.0127
A27G C42T	0.817
A27G C42A	0.827
A27G C42G	0.812
C28A T44G	0.798
C28A T44C	0.802
C28A T44A	0.834
A27C C28A	0.807
A27C C28G	0.807
A27C C28T	0.819
A27T A41C	0.766
A27T A41G	0.776
A27T A41T	0.779
A27T T32A	0.874
A27T T32G	0.838
A27T T32C	0.755
A27T T30G	0.84
A27T T30A	0.775
A27T T30C	0.804
A27G A37T	0.81
A27G A37C	0.817
A27G A37G	0.848
A27T G34T	0.771
A27T G34C	0.795

Variant	fraction ligated
A27T G34A	0.806
A27T A57G	0.794
A27T A57T	0.804
A27T A57C	0.775
A27C A39T	0.789
A27C A39G	0.809
A27C A39C	0.785
C28A G47T	0.361
C28A G47A	0.75
C28A G47C	0.302
A27T T43G	0.784
A27T T43C	0.761
A27T T43A	0.799
C28A G50C	0.163
C28A G50T	0.517
C28A G50A	0.154
A27C A37C	0.793
A27C A37G	0.817
A27C A37T	0.82
A27C G34A	0.809
A27C G34T	0.815
A27C G34C	0.808
A27G A39T	0.814
A27G A39G	0.799

Variant	fraction ligated
A27G A39C	0.8
A27G G34C	0.804
A27G G34T	0.804
A27G G34A	0.831
C28A A48T	0.424
C28A A48G	0.784
C28A A48C	0.477
A27T A48C	0.729
A27T A48T	0.787
A27T A48G	0.794
A27T C40T	0.847
A27T C40A	0.856
A27T C40G	0.807
A27T G38C	0.784
A27T G38T	0.799
A27T G38A	0.811
A27G G31T	0.791
A27G G31A	0.776
A27G G31C	0.798
C28A A41T	0.827
C28A A41G	0.779
C28A A41C	0.794
C28A T43G	0.812
C28A T43C	0.795

Variant	fraction ligated
C28A T43A	0.799
A27G T29C	0.788
A27G T29G	0.806
A27G T29A	0.829
C28A C42G	0.81
C28A C42A	0.803
C28A C42T	0.823
A27T C33T	0.867
A27T C33A	0.84
A27T C33G	0.838
A27C A41T	0.785
A27C A41C	0.782
A27C A41G	0.781
C28A A39T	0.794
C28A A39G	0.798
C28A A39C	0.802
A27C G46A	0.82
A27C G46C	0.782
A27C G46T	0.78
A27G T45A	0.694
A27G T45G	0.217
A27G T45C	0.357
C28A T29G	0.814
C28A T29A	0.798

Variant	fraction ligated
C28A T29C	0.828
A27C A56C	0.75
A27C A56T	0.787
A27C A56G	0.742
A27T C42A	0.809
A27T C42T	0.822
A27T C42G	0.819
A27C A36G	0.821
A27C A36T	0.817
A27C A36C	0.793
A27T C28T	0.798
A27T C28A	0.829
A27T C28G	0.802
A27G T32A	0.795
A27G T32G	0.827
A27G T32C	0.77
C28A T30G	0.808
C28A T30A	0.8
C28A T30C	0.804
A27C T44A	0.79
A27C T44C	0.788
A27C T44G	0.798
